As usually defined, the Kd is the constant that tells how readily two partners part at equilibrium.

Our source for the binding result and Kd values is patent US20220340666A1 (NEW YORK UNIVERSITY, published 2022).

The chains are these.
B1: G9.1-1 Fab (Fab, V domains shown)
VH: EVQLVESGGGLVQPGGSLRLSCAASGFTFSSSSIHWVRQAPGKGLEWVASIYSSYGYTYYADSVKGRFTISADTSKNTAYLQMNSLRAEDTAVYYCARYYWGWSQNQGFWWYGLDYWGQGTLVTVSS
VL: DIQMTQSPSSLSASVGDRVTITCRASQSVSSAVAWYQQKPGKAPKLLIYSASSLYSGVPSRFSGSRSGTDFTLTISSLQPEDFATYYCQQSWVGSLITFGQGTKVEIKR
B2: G9.1-8m1 mIgG1 (antibody, V domains shown)
VH: EVQLVESGGGLVQPGGSLRLSCAASGFTVSSSSIHWVRQAPGKGLEWVASSSSSSGYTSYADSVKGRFTISADTSKNTAYLQMNSLRAEDTAVYYCARYSTYSWGGIGKWVWGMDYWGQGTLVTVSS
VL: DIQMTQSPSSLSASVGDRVTITCRASQSVSSAVAWYQQKPGKAPKLLIYSASSLYSGVPSRFSGSRSGTDFTLTISSLQPEDFATYYCQQSYYDSNPITFGQGTKVEIKR
notes: Human/mouse hybrid IgG: CH1 and CL human, Fc mouse IgG1; also called G9.1-8mut1
B3: G9.1-8m9 Fab (Fab, V domains shown)
VH: EVQLVESGGGLVQPGGSLRLSCAASGFTVSSSSIHWVRQAPGKGLEWVAYIYPYSGYTSYADSVKGRFTISADTSKNTAYLQMNSLRAEDTAVYYCARYSTYSSKWVWGMDYWGQGTLVTVSS
VL: DIQMTQSPSSLSASVGDRVTITCRASQSVSSAVAWYQQKPGKAPKLLIYSASSLYSGVPSRFSGSRSGTDFTLTISSLQPEDFATYYCQQSYYDSNPITFGQGTKVEIKR
notes: Purified Fab; also called G9.1-8mut9
B4: G9.1-8m6 Fab (Fab, V domains shown)
VH: EVQLVESGGGLVQPGGSLRLSCAASGFTVSSSSIHWVRQAPGKGLEWVAYIYPYSGYTSYADSVKGRFTISADTSKNTAYLQMNSLRAEDTAVYYCARYSTYSSSSSKWVWGMDYWGQGTLVTVSS
VL: DIQMTQSPSSLSASVGDRVTITCRASQSVSSAVAWYQQKPGKAPKLLIYSASSLYSGVPSRFSGSRSGTDFTLTISSLQPEDFATYYCQQSYYDSNPITFGQGTKVEIKR
notes: Purified Fab; also called G9.1-8mut6
B5: G9.1-8m8 mIgG2a (antibody, V domains shown)
VH: EVQLVESGGGLVQPGGSLRLSCAASGFTVSSSSIHWVRQAPGKGLEWVAYIYPYSGYTSYADSVKGRFTISADTSKNTAYLQMNSLRAEDTAVYYCARYSTYSSSKWVWGMDYWGQGTLVTVSS
VL: DIQMTQSPSSLSASVGDRVTITCRASQSVSSAVAWYQQKPGKAPKLLIYSASSLYSGVPSRFSGSRSGTDFTLTISSLQPEDFATYYCQQSYYDSNPITFGQGTKVEIKR
notes: also called G9.1-8mut8
B6: G9.1-8m8 Fab (Fab, V domains shown)
VH: EVQLVESGGGLVQPGGSLRLSCAASGFTVSSSSIHWVRQAPGKGLEWVAYIYPYSGYTSYADSVKGRFTISADTSKNTAYLQMNSLRAEDTAVYYCARYSTYSSSKWVWGMDYWGQGTLVTVSS
VL: DIQMTQSPSSLSASVGDRVTITCRASQSVSSAVAWYQQKPGKAPKLLIYSASSLYSGVPSRFSGSRSGTDFTLTISSLQPEDFATYYCQQSYYDSNPITFGQGTKVEIKR
notes: Purified Fab; also called G9.1-8mut8
B7: G9.1-8m9 mIgG2a (antibody, V domains shown)
VH: EVQLVESGGGLVQPGGSLRLSCAASGFTVSSSSIHWVRQAPGKGLEWVAYIYPYSGYTSYADSVKGRFTISADTSKNTAYLQMNSLRAEDTAVYYCARYSTYSSKWVWGMDYWGQGTLVTVSS
VL: DIQMTQSPSSLSASVGDRVTITCRASQSVSSAVAWYQQKPGKAPKLLIYSASSLYSGVPSRFSGSRSGTDFTLTISSLQPEDFATYYCQQSYYDSNPITFGQGTKVEIKR
notes: also called G9.1-8mut9
B8: G9.1-8m7 Fab (Fab, V domains shown)
VH: EVQLVESGGGLVQPGGSLRLSCAASGFTVSSSSIHWVRQAPGKGLEWVAYIYPYSGYTSYADSVKGRFTISADTSKNTAYLQMNSLRAEDTAVYYCARYSTYSSSSKWVWGMDYWGQGTLVTVSS
VL: DIQMTQSPSSLSASVGDRVTITCRASQSVSSAVAWYQQKPGKAPKLLIYSASSLYSGVPSRFSGSRSGTDFTLTISSLQPEDFATYYCQQSYYDSNPITFGQGTKVEIKR
notes: Purified Fab; also called G9.1-8mut7
B9: G9.1-8m11 mIgG2a (antibody, V domains shown)
VH: EVQLVESGGGLVQPGGSLRLSCAASGFTVSSSSIHWVRQAPGKGLEWVAYIYPYSGYTSYADSVKGRFTISADTSKNTAYLQMNSLRAEDTAVYYCARYSTYKWVWGMDYWGQGTLVTVSS
VL: DIQMTQSPSSLSASVGDRVTITCRASQSVSSAVAWYQQKPGKAPKLLIYSASSLYSGVPSRFSGSRSGTDFTLTISSLQPEDFATYYCQQSYYDSNPITFGQGTKVEIKR
notes: also called G9.1-8mut11
B10: G9.1-8m11 Fab (Fab, V domains shown)
VH: EVQLVESGGGLVQPGGSLRLSCAASGFTVSSSSIHWVRQAPGKGLEWVAYIYPYSGYTSYADSVKGRFTISADTSKNTAYLQMNSLRAEDTAVYYCARYSTYKWVWGMDYWGQGTLVTVSS
VL: DIQMTQSPSSLSASVGDRVTITCRASQSVSSAVAWYQQKPGKAPKLLIYSASSLYSGVPSRFSGSRSGTDFTLTISSLQPEDFATYYCQQSYYDSNPITFGQGTKVEIKR
notes: Purified Fab; also called G9.1-8mut11
B11: G9.1-8m10 Fab (Fab, V domains shown)
VH: EVQLVESGGGLVQPGGSLRLSCAASGFTVSSSSIHWVRQAPGKGLEWVAYIYPYSGYTSYADSVKGRFTISADTSKNTAYLQMNSLRAEDTAVYYCARYSTYSKWVWGMDYWGQGTLVTVSS
VL: DIQMTQSPSSLSASVGDRVTITCRASQSVSSAVAWYQQKPGKAPKLLIYSASSLYSGVPSRFSGSRSGTDFTLTISSLQPEDFATYYCQQSYYDSNPITFGQGTKVEIKR
notes: Purified Fab; also called G9.1-8mut10
B12: G9.1-8m5 mIgG1 (antibody, V domains shown)
VH: EVQLVESGGGLVQPGGSLRLSCAASGFTVSSSSIHWVRQAPGKGLEWVAYIYPYSGYTSYADSVKGRFTISADTSKNTAYLQMNSLRAEDTAVYYCARYSTYSWGGIGSSSSSMDYWGQGTLVTVSS
VL: DIQMTQSPSSLSASVGDRVTITCRASQSVSSAVAWYQQKPGKAPKLLIYSASSLYSGVPSRFSGSRSGTDFTLTISSLQPEDFATYYCQQSYYDSNPITFGQGTKVEIKR
notes: Human/mouse hybrid IgG: CH1 and CL human, Fc mouse IgG1; also called G9.1-8mut5
B13: G9.1-8m3 mIgG1 (antibody, V domains shown)
VH: EVQLVESGGGLVQPGGSLRLSCAASGFTVSSSSIHWVRQAPGKGLEWVAYIYPYSGYTSYADSVKGRFTISADTSKNTAYLQMNSLRAEDTAVYYCARSSSSSWGGIGKWVWGMDYWGQGTLVTVSS
VL: DIQMTQSPSSLSASVGDRVTITCRASQSVSSAVAWYQQKPGKAPKLLIYSASSLYSGVPSRFSGSRSGTDFTLTISSLQPEDFATYYCQQSYYDSNPITFGQGTKVEIKR
notes: Human/mouse hybrid IgG: CH1 and CL human, Fc mouse IgG1; also called G9.1-8mut3
B14: G9.1-8m2 mIgG1 (antibody, V domains shown)
VH: EVQLVESGGGLVQPGGSLRLSCAASGFTVSSSSIHWVRQAPGKGLEWVAYIYPYSSSSSYADSVKGRFTISADTSKNTAYLQMNSLRAEDTAVYYCARYSTYSWGGIGKWVWGMDYWGQGTLVTVSS
VL: DIQMTQSPSSLSASVGDRVTITCRASQSVSSAVAWYQQKPGKAPKLLIYSASSLYSGVPSRFSGSRSGTDFTLTISSLQPEDFATYYCQQSYYDSNPITFGQGTKVEIKR
notes: Human/mouse hybrid IgG: CH1 and CL human, Fc mouse IgG1; also called G9.1-8mut2
B15: G9.1-8m4 mIgG1 (antibody, V domains shown)
VH: EVQLVESGGGLVQPGGSLRLSCAASGFTVSSSSIHWVRQAPGKGLEWVAYIYPYSGYTSYADSVKGRFTISADTSKNTAYLQMNSLRAEDTAVYYCARYSTYSSSSSSKWVWGMDYWGQGTLVTVSS
VL: DIQMTQSPSSLSASVGDRVTITCRASQSVSSAVAWYQQKPGKAPKLLIYSASSLYSGVPSRFSGSRSGTDFTLTISSLQPEDFATYYCQQSYYDSNPITFGQGTKVEIKR
notes: Human/mouse hybrid IgG: CH1 and CL human, Fc mouse IgG1; also called G9.1-8mut4

The target in the first test is T1, human Galectin-9 CRD1 (residues 1-148), biotinylated (human, UniProt O00182 1-148, biotinylated in vitro with BirA (Avitag)).
T1 construct: Made as GST fusion, GST cleaved off with thrombin, gel filtered, biotinylated; not shown: Avitag upstream of the cloned gene (pGEX vector), left after thrombin cleavage from GST
T1 sequence (O00182 1-148): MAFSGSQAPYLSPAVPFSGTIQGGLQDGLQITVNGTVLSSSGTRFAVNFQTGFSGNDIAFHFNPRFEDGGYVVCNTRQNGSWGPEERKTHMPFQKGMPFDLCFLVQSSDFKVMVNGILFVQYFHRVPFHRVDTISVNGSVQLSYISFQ
In words: phage ELISA, phage-displayed Fab on biotinylated CRD. A general note: ELISA stands for enzyme-linked immunosorbent assay.
For the molecule B1, the binding result was “binds”.

Another test has as its target T1, human Galectin-9 CRD1 (residues 1-148), …. In words: bead-based binding assay, flow cytometry. How it is done: The affinities of the antibodies were assessed using a bead-based assay as previously described (Nishikori et al., J Mol Biol, 2012, 424, 391-399) and surface plasmon resonance (SPR). In the bead-based assay, a biotinylated protein (either a Galectin-9 sample or a Fab sample) was immobilized on streptavidin-coated Dynabeads M280 via the biotin-streptavidin interaction. After blocking the excess biotin-binding sites on the beads using unconjugated biotin, binding titration was performed by incubating the second component (i.e., Fab for immobilized Galectin-9 or vice versa), followed by quantification using a dye-labeled neutravidin (ThermoFisher) and flow cytometry analysis. In experiments where the second component is an IgG, a dye-labeled anti-human IgG or anti-mouse IgG antibody was used for detection.
(A flow cytometer gives signals particle by particle.)
On to B2, for which the binding result is “no binding”. On to B3, for which binding was characterised by a dissociation constant (Kd) of 1.57 nM. On the same count and under the same terms, the figure for B4 is 0.52 nM. The same measure, in the same setting: the figure for B5 is 0.51 nM; for B6 it is 0.56 nM. B7 yielded a Kd of 0.71 nM. The same measure, in the same setting: the result for B8 reads 0.93 nM; that for B9, 1.46 nM.

In turn, B10 showed a dissociation constant (Kd) of 52.7 nM. Same read-out and setting: the figure for B11 is 58.4 nM. Take B12: the binding result is “no binding”.

For the molecule B13, the binding result was “no binding”.

B14 displayed a Kd of 6.51 nM. The same measure, in the same setting: the result for B15 reads 12 nM.
